Data on one molecule can be found in article PMC2500141 (The Journal of Cell Biology, 2008).

The test deals with Drp1-6His phosphorylated at Ser600 by CaMKIα (UniProt O00429-4 1-699, phosphoserine at 600 (phosphorylated in vitro by CaMKIα)). Description: pull-down.

B1: GST-hFis1 (hFis1-ΔC, without 30 amino acids at the C terminus) (domain or fragment, human, UniProt Q9Y3D6 1-122, looked up)
chain: MEAVLNELVSVEDLLKFEKKFQSEKAAGSVSKSTQFEYAWCLVRSKYNDDIRKGIVLLEELLPKGSKEEQRDYVFYLAVGNYRLKEYEKALKYVRGLLQTEPQNNQAKELERLIDKAMKKDG
B1: the binding result is on record as “binds”.
